Target: STAT3 (UniProt P40763)
Assay: co-immunoprecipitation, immunoblot
Details: reference: wild-type EZH2; sites S21

EZH2 (from UniProt Q15910) EZH2 S21A
binding against the reference: lost

— publication PMC4109796
